Paper doi:10.1101/2020.06.30.178921 (bioRxiv, 2020)

Biological target: CH848TF gp120 monomeric protein (HIV-1 CH848 transmitted-founder …, UniProt A0A1W6IPB2, strain, N-linked glycans)
Assay: ELISA

- binding result: binds
B1: 2G12 IgG (antibody, V domains shown)
VH: EVQLVESGGGLVKAGGSLILSCGVSNFRISAHTMNWVRRVPGGGLEWVASISTSSTYRDYADAVKGRFTVSRDDLEDFVYLQMHKMRVEDTAIYYCARKGSDRLSDNDPFDAWGPGTVVTVSP
VL: DVVMTQSPSTLSASVGDTITITCRASQSIETWLAWYQQKPGKAPKLLIYKASTLKTGVPSRFSGSGSGTEFTLTISGLQFDDFATYHCQHYAGYSATFGQGTRVEIK
